Ends that are not written are not given here.
T1: recombinant PTB-domain containing Karet(1-228) truncation mutant (mouse, UniProt Q8K2Y9 1-228)
T1 construct: Recombinant protein for in-vitro precipitation; also called recombinant Karet protein; Karet PTB domain
T1 sequence: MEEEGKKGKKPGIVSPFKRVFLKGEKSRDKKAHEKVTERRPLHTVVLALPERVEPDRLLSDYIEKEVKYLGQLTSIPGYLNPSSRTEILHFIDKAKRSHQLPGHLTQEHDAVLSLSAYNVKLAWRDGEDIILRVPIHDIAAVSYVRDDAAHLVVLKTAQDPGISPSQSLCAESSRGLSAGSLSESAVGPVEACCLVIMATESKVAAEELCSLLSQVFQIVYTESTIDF


Key:
[1] = biological target: T1, recombinant PTB-domain containing …; assay: in-vitro precipitation with biotinylated peptide on streptavidin beads, blot anti-His
[2] = biological target: T2, full length Karet protein (RRS bait) (mouse, UniProt Q8K2Y9 1-453); assay: RRS screen in yeast, whole Karet protein against an embryonic mouse brain library
T2 construct: Yeast RRS construct; fusion partner not described; also called whole Karet protein
Source text: The Ras rescue system (RRS) method is based on translocation of a mammalian cytoplasmic Ras to the plasma membrane, resulting in activation of a viability pathway in yeast (Broder, Y. C., S. Katz, and A. Aronheim. Curr Biol, 1998. 8 (20): p. 1121-4; Aronheim, A. Methods Mol Biol, 2004. 250: p. 251-62; Hubsman, M., G. et al. Nucleic Acids Res, 2001. 29 (4): p. E18).

Row | Binder | binding result [1] | binding result [2]
1 | MSLHFMTLGGSSLSPTEGKGSGLQGHI (also: biotinylated (position not given here), Immobilized on streptavidin beads; also called TrkA peptide) [biotinylated synthetic TrkA juxtamembrane region peptide, position 458-484] | binds | 
2 | Cyclin D1, mRNA (other, mouse, UniProt P25322 1-295, looked up, RRS library clone (embryonic mouse brain)) MEHQLLCCEVETIRRAYPDTNLLNDRVLRAMLKTEETCAPSVSYFKCVQKEIVPSMRKIVATWMLEVCEEQKCEEEVFPLAMNYLDRFLSLEPLKKSRLQLLGATCMFVASKMKETIPLTAEKLCIYTDNSIRPEELLQMELLLVNKLKWNLAAMTPHDFIEHFLSKMPEADENKQTIRKHAQTFVALCATDVKFISNPPSMVAAGSVVAAMQGLNLGSPNNFLSCYRTTHFLSRVIKCDPDCLRACQEQIEALLESSLRQAQQNVDPKATEEEGEVEEEAGLACTPTDVRDVDI |  | binds
3 | Cysteine and glycine-rich protein 1 (Csrp1), mRNA (other, mouse, UniProt P97315 1-193, looked up, RRS library clone (embryonic mouse brain)) MPNWGGGKKCGVCQKTVYFAEEVQCEGNSFHKSCFLCMVCKKNLDSTTVAVHGEEIYCKSCYGKKYGPKGYGYGQGAGTLSTDKGESLGIKHEEAPGHRPTTNPNASKFAQKIGGSERCPRCSQAVYAAEKVIGAGKSWHKSCFRCAKCGKGLESTTLADKDGEIYCKGCYAKNFGPKGFGFGQGAGALVHSE |  | binds
